The record followed here is US20260103719.

Series [1] has as its target SuSy3-HIS protein (tomato sucrose synthase SuSy3, Solyc07g042550.2.1, His-tagged, expressed in vitro and purified).
The target of series [2] is SlSuSy3^S11A (SuSy3 protein with the serine at position 11 mutated to alanine).
SlSuSy3^S11A (SuSy3 protein with the serine at position 11 mutated to alanine), sequence (chain, as listed by the source S11A): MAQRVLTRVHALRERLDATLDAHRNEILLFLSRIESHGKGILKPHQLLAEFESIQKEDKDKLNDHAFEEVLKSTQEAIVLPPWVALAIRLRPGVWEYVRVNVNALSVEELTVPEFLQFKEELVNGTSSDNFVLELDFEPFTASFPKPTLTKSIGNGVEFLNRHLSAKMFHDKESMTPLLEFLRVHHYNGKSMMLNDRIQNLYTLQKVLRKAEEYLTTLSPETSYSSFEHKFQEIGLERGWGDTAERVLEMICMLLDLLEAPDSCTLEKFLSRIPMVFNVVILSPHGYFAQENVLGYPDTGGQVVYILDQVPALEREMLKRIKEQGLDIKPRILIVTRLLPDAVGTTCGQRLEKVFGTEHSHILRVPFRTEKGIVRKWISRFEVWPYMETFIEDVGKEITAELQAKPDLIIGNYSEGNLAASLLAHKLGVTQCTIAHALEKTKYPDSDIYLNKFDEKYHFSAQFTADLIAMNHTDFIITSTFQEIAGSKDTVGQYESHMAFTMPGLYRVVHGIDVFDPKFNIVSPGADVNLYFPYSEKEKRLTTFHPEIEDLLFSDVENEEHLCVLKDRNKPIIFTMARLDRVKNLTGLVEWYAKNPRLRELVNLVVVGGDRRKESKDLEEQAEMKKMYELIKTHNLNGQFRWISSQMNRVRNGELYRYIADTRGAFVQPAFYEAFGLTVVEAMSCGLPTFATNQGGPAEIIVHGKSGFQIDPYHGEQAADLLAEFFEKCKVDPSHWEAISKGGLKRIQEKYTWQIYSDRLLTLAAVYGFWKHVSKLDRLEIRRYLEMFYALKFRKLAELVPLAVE

SuSy3-HIS protein (tomato sucrose synthase SuSy3, Solyc07g042550.2.1, His-tagged, expressed in vitro and purified), sequence (chain, as listed by the source): as the sequence (chain, as listed by the source S11A) above, with A11S counted along it

B1: mCDPK8-His protein without kinase activity (CDPK8 lacking two key amino acids) (protein)
chain: MGNCCGTPGNSSENKKKKNKPNPFALDYGATQASGGDGNKLVVLKDPTGHNIQEKYDLGCERGEFGVTYLCTDVDTGDKYACKSISKKKLRTAVDIDDVRREVEIMKHLPKHPNIVTLKDTYEDDNAVHIVMELCEGGELFDRIVARGHYTERAAAVIMKTIVEVVQMCHMHGVMHRDLKPENFLFGNKKETAPLKAIDFGLSVFFKPGERFNEIVGSPYYMAPEVLKRNYGPEVDVWSAGVILYILLCGVPPFWAETEQGVAQAIIRSVVDFKRDPWPKVSDNAKDLVKKMLDPDPTRRLTAQQVLEHTWLQNIKKAPNVSLGETVKARLKQFSVMNKLKKRALTIMAEFLSAEEVAGMKDAFDMMDTGKKGKINLGELKNGLQKLGHQIPDVDLQILMEAADVDGDGSLNYGEFVAVSVHLRKMANDEHLHKAFSVFDRDQSGYIEIEELRSALSDEDGGNSEEVINAIMHDVDTDKDGRISYEEFAAMMKAGTDWRKASRQYSRERFNSLSLKLMRDGSIQVGKEEGR
Turning to B1, the “in vitro phosphorylation (gamma-32P-ATP, SDS-PAGE, autoradiography)” value in series [1] was “the mCDPK8 protein lacking two key amino acids has no kinase activity and cannot phosphorylate the SuSy3 protein”.

B2: CDPK8-HIS protein (tomato calcium-dependent protein kinase 8, Solyc11g065660, His-tagged, expressed in vitro and purified) (protein)
chain: MGNCCGTPGNSSENKKKKNKPNPFALDYGATQASGGDGNKLVVLKDPTGHNIQEKYDLGCELGRGEFGVTYLCTDVDTGDKYACKSISKKKLRTAVDIDDVRREVEIMKHLPKHPNIVTLKDTYEDDNAVHIVMELCEGGELFDRIVARGHYTERAAAVIMKTIVEVVQMCHMHGVMHRDLKPENFLFGNKKETAPLKAIDFGLSVFFKPGERFNEIVGSPYYMAPEVLKRNYGPEVDVWSAGVILYILLCGVPPFWAETEQGVAQAIIRSVVDFKRDPWPKVSDNAKDLVKKMLDPDPTRRLTAQQVLEHTWLQNIKKAPNVSLGETVKARLKQFSVMNKLKKRALTIMAEFLSAEEVAGMKDAFDMMDTGKKGKINLGELKNGLQKLGHQIPDVDLQILMEAADVDGDGSLNYGEFVAVSVHLRKMANDEHLHKAFSVFDRDQSGYIEIEELRSALSDEDGGNSEEVINAIMHDVDTDKDGRISYEEFAAMMKAGTDWRKASRQYSRERFNSLSLKLMRDGSIQVGKEEGR
Regarding B2, the “in vitro phosphorylation assay (autoradiography)” value in series [2] was “there is no autoradiographic band, indicating that CDPK8 cannot phosphorylate SISuSy3^S11A”. For the same protein, in series [1], the “in vitro phosphorylation (gamma-32P-ATP, SDS-PAGE, autoradiography)” value was “the CDPK8 protein itself has kinase activity and can phosphorylate the SuSy3 protein”; the “in vitro phosphorylation assay (autoradiography)” value was “CDPK8 can phosphorylate the serine at position 11 (S11) of the SuSy3 protein”; the “mass spectrometry of phosphorylated residues after co-incubation” value is 14 amino acid residues on the SuSy3 protein can be phosphorylated by CDPK8 protein, and the sites are T7, S11, T19, S152, S165, S174, T176, S191, S219, S360, T430, S535, T543, and S706 in sequence.
